This series deals with the molecule itself. Put plainly: sucrose gradient centrifugation; crude mitochondrial extracts solubilized with 1% digitonin at low protein density (pellet in 500 μl, 10× less dense); 5-25% sucrose gradient, 14-16 h at 4°C; fractions blotted for HA.

B1: HA-tagged Fzo1 (yeast mitofusin), wild type (natural protein, yeast (strains isogenic to S288c), UniProt P38297 1-855, looked up)
chain: MSEGKQQFKDSNKPHKDSTDQDDDAATIVPQTLTYSRNEGHFLGSNFHGVTDDRTTLFDGEEGRREDDLLPSLRSSNSKAHLISSQLSQWNYNNNRVLLKRSILKTQAFMDQLQEENNIRPIFIAANDEREKLHVLQLNIKLDGQYNTKEKNGFNIEKKALSKLFHSQIVSVTNHLNALKKRVDDVSSKVFITGDVNTGKSALCNSLLKQRLLPEDQLPCTNVFSEILEARENDGIEEVHAIPLNIAPTLKEAIDMYSIQNPKTYEIHTLKELPDLVPQNGKYALLKIYIKDDKRPASTSLLRNGTVDISLIDSPGLNMDSLQTAEVMSRQEEIDLVIFVVNAENQLTLSAKEFISLASREKKLMFFVVKKFDKIRDKQRCKELILKQIRDLSPETYKRAADFVHFVSKNGDELPHYHNENDNEDHGDRKPDDDPYSSSDPDPDFDSLEDSLRNFVLKKRSLSKLLPAKTYLSKLLSDIIMISKSNMKMYSEEEIKINEQLETLRPEILSARAKCNDLTTSVDQMAEQTITMTYNNTKEALLNALDVPLHEYPKYQGLGQIYDFIFSTEAFIANQIDESIGSSELFAKQKTDLLVKKIYEIGKNELGDDFMCERVFRSELMFRKRKHLIGKRLKVSLSITDLFAPTWKGFLSYLSWQKPVTAPLPDIEGQTNEGQIGLMKYLGLKNYPLTQYWSRPSLLFTSKIPTLTLYFLGSTKVVGNIILNGIKLSSWSSLKKLSVPVIVVGSLLGLTYLIHDLPRALPMNLSIKYKRKLQELDYIHLNAQRTSNEVRDVLRVPTREILRSCEIIMDKKQITKKELENKKESNLLSIKFFQSLYEGTVAQKLMVEEINLDID
modifications: unmodified and ubiquitylated forms both present; K48-linked ubiquitin chains conjugated to lysine 398
notes: Fzo1, the yeast mitofusin (large dynamin-related GTPase of the mitochondrial outer membrane); The immunoprecipitate holds a mix of unmodified and ubiquitylated Fzo1; also called HA-Fzo1; wt Fzo1; source: yeast (isogenic to S288c), genomically HA-tagged or expressed from the centromeric plasmid pRS316 in Δfzo1 cells; in solubilized crude mitochondrial extracts
In general, stoichiometry N refers to a count of units in the complex or per binding partner. As for B1, the “stoichiometry N” value stood at 2.

(Values after PMC6925385, “Dual role of a GTPase conformational switch for membrane fusion by mitofusin ubiquitylation” (Life Science Alliance, 2019).)
